Test results reported in patent publication US20230110188A1 (ARGENX IIP, published 2023).

T1: human monomeric MuSK FLAG streptavidin (in house produced, batch 27-6-2019) (human, UniProt O15146 24-495)
T1 construct: also called full length MuSK; not shown: FLAG and streptavidin tags
T1 sequence: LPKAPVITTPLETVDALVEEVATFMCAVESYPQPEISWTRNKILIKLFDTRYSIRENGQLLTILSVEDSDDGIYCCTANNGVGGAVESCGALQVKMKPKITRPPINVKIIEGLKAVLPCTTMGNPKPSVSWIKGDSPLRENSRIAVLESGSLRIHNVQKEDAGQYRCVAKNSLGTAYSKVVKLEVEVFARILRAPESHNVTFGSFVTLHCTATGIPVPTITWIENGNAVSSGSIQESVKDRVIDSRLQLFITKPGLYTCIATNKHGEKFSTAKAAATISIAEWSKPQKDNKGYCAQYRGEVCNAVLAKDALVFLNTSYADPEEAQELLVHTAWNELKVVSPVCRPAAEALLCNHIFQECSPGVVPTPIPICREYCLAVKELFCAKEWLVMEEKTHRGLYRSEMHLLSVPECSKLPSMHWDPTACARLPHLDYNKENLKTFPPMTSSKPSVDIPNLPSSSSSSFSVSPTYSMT

T2: Human MuSK (R&D Systems, cat. 10189-MK, histidine tag) (human, UniProt O15146 24-495)
T2 construct: Bought protein; also called human monomeric MuSK-6xhis; not shown: histidine tag (6xhis)
T2 sequence: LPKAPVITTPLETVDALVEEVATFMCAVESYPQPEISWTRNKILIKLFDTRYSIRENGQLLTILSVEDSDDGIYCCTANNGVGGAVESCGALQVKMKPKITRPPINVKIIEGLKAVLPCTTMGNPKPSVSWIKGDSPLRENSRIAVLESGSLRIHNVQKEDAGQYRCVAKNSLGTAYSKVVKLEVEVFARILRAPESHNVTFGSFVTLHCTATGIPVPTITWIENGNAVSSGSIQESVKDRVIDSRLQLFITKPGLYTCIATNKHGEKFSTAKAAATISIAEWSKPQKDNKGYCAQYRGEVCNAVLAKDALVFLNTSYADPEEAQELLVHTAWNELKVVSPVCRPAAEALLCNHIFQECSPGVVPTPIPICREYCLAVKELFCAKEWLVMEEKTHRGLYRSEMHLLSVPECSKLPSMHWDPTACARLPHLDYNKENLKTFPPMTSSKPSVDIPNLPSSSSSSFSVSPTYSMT


Key:
[1] = target: T1, human monomeric MuSK FLAG streptavidin …; assay: epitope binning ELISA (coated anti-MuSK Fab, MuSK, IgG, anti-Fc HRP); competitor: 4D3
Procedure: (§1) For epitope binning—An ELISA plate was coated at 1 μg/ml of the anti-MuSK Fabs and incubated overnight at 4° C. Next, the plate was wash with PBS followed by blocking with 1% casein in PBS for one hour. After washing the plate, 1 μg/ml of human monomeric MuSK (in house produced, batch 27-6-2019) was incubated for one hour at RT. The plate was washed and anti-MuSK antibodies at 0.3-10 μg/ml were added to the plate and incubated for one hour at RT. After washing the plate, detection antibody (goat anti-human Fc HRP (Jackson Immunoresearch cat. 109-035-098)) was added at 5000 fold dilution in PBS 0.1% casein. The plate was incubated for one hour at RT and washed with PBS-T. TMB was added and the reaction was stopped by adding H2504. […]
(§2) For the epitope binning ELISA, a plate was coated with anti-MuSK Fab and human monomeric MuSK was added after blocking the plate. Next the different antibodies were added and allowed to bind.

[2] = target: T2, Human MuSK (R&D Systems, cat. 10189-MK, …); assay: SPR (Biacore), koff at pH 5.5 over koff at pH 7.4
Text: (§3) In order to study pH dependent binding of our antibodies to MuSK, the Biacore was used with the same setup as described in the paragraph entitled “Binding affinity for mouse, human and rhesus monkey recombinant MuSK in Biacore”. 6. […] For the other antibodies there is no real difference observed between pH 7.4 and 5.5.

[3] = target: T2, Human MuSK (R&D Systems, cat. 10189-MK, …); assay: SPR (Biacore), MuSK-coated chip, antibody alone (run of first antibody 4D3)
Procedure: A chip was coated with ˜5000 RU of human MuSK (Lot nr DHUCO 11908A, batch nr 1089_MK). In a first experiment the saturating concentration of the pre-leads was determined. This is the concentration where the amplitude of a specific pre-lead doesn't increase anymore when additional pre-lead is injected on the immobilized MuSK.

[4] = target: T2, Human MuSK (R&D Systems, cat. 10189-MK, …); assay: SPR (Biacore), antibody captured on anti-hFc chip; average of 0.3125-10 nM; dissociation pH 5.5
Text: as §3

[5] = target: T1, human monomeric MuSK FLAG streptavidin …; assay: epitope binning ELISA (coated anti-MuSK Fab, MuSK, IgG, anti-Fc HRP); competitor: 3F6c
Procedure: as §1, §2

[6] = target: T2, Human MuSK (R&D Systems, cat. 10189-MK, …); assay: SPR (Biacore), antibody captured on anti-hFc chip; 0.3125 nM; dissociation pH 7.4
Text: as §3

[7] = target: T2, Human MuSK (R&D Systems, cat. 10189-MK, …); assay: SPR (Biacore), pH 5.5 (summary table, repeats the average of Table 17)
Text: as §3

[8] = target: T2, Human MuSK (R&D Systems, cat. 10189-MK, …); assay: SPR (Biacore), antibody captured on anti-hFc chip; 5 nM; dissociation pH 7.4
Text: as §3

Row | OD 450 nm [1] [OD] | Fold difference (5.5/7.4) of koff [2] [fold] | amplitude of prelead without presaturating MuSK (RU) [3] [RU] | koff [4] [s⁻¹] | OD 450 nm [5] [OD] | koff [6] [s⁻¹] | koff [7] [s⁻¹] | koff [8] [s⁻¹] | Binder
1 | 0.062 | 0.6 | 951 | 9e-05 | 0.162 | 0.00018 | 9e-05 | 0.00015 | 3D10a (antibody, human IgG1, kappa, L234A L235A, V domains shown) VH: EVQLVESGGGLVKPGGSLRLSCAASGFTFSASTMAWVRQAPGKGLEWVSSVSGDSHHIYYADSLKGRFTISRDNAKNSLYLQMNSLRAEDTAVYYCARERLLRLGVGFDSWGQGTLVTVSS VL: DIQMTQSPSSLSASVGDRVTITCRASQRISGFVNWYQQKPGKAPKLLIYAASTLQSGVPSRFSGSGSGTDFTLTISSLQPEDFATYYCQQSYSPLYTFGQGTKLEIKR
2 | 0.023 | 1.1 | 859 | 0.00016 | 0.1 | 0.00013 | 0.00016 | 0.00014 | 4D3 (antibody, human IgG1, kappa, L234A L235A, V domains shown) VH: EVQLVESGGGLVKPGGSLRLSCAASGFTFSSYTMTWVRQAPGKGLEWVSSISSGGHYIYYTDSLKGRFTISRDNAKNSLYLQMNSLRAEDTAVYYCARERLLRLGVGFDFWGQGTLVTVSS VL: DIQMTQSPSSLSASVGDRVTITCRASQSISGYLNWYQQKPGKAPKLLIYAASTLQSGVPSRFSGSGSGTDFTLTISSLQPEDFATYYCQQSYSALYTFGQGTKLEIKR
3 | 0.086 | 0.3 | 1100 | 4e-05 | 0.186 | 0.00018 | 4e-05 | 8e-05 | 3D9b (antibody, human IgG1, kappa, L234A L235A, V domains shown) VH: EVQLVESGGGLVKPGGSLRLSCAASGFTFSTYTMHWVRQAPGKGLEWVSSISSRSAYKYYADSVKGRFTISRDNAKNSLYLQMNSLRAEDTAVYYCARDFFQLGPPRFDSWGQGTLVTVSS VL: DIQMTQSPSSLSASVGDRVTITCRASQRISSFLNWYQQKPGKAPKLLIYGASNLQSGVPSRFSGSGSGTDFTLTISSLQPEDFATYYCQQSYSPSYTFGQGTKLEIKR
4 | 0.076 | 2.5 | 1010 | 0.0002 | 0.156 | 0.00015 | 0.0002 | 7e-05 | 3F6c (antibody, human IgG1, kappa, L234A L235A, V domains shown) VH: EVQLVESGGGLVKPGGSLRLSCAASGFTFSSYTMDWVRQAPGKGLEWVSSIGSNGDYIYYADSVRGRFTISRDNAKNSLYLQMNSLRAEDTAVYYCARGQLAVAGTHFDYWGQGTLVTVSS VL: DIQMTQSPSSLSASVGDRVTITCRASQKVNKYVNWYQQKPGKAPKLLIYAASTLQSGVPSRFSGSGSGTDFTLTISSLQPEDFATYYCQQSYSPLSTFGQGTKLEIKR
